# Test results from PMC10994814, “Enzymatic activity of cGAS in the presence of three types of DNAs: limited cGAS stimulation by single-stranded HIV-1 SL2 DNA”.
# B1: G3 Y-form DNA (dsDNA)
# DNA 1: GGGGAACTCCAGCAGGACCATTGGGG
# DNA 2: GGGCAATGGTCCTGCTGGAGTTCGGG
# Target: human cGAS (Homo sapiens, UniProt Q8N884 1-522)
# Experiment: EMSA; 1 uM DNA, 3 uM cGAS; EMSA: 1 uM DNA, 0-5 uM cGAS, 20 mM Tris-HCl pH 8.0 (4 C), 200 mM NaCl, on ice 30 min; 8% native PAGE in 25 mM Tris-HCl pH 8.5, 190 mM glycine; ethidium bromide
# Conditions: protein: recombinant; tags: none (N-terminal His6-lipoyl domain removed with TEV protease); 20 bp duplex, unpaired G3 on all four ends (fork at both ends)
# human cGAS, sequence (Q8N884 whole entry): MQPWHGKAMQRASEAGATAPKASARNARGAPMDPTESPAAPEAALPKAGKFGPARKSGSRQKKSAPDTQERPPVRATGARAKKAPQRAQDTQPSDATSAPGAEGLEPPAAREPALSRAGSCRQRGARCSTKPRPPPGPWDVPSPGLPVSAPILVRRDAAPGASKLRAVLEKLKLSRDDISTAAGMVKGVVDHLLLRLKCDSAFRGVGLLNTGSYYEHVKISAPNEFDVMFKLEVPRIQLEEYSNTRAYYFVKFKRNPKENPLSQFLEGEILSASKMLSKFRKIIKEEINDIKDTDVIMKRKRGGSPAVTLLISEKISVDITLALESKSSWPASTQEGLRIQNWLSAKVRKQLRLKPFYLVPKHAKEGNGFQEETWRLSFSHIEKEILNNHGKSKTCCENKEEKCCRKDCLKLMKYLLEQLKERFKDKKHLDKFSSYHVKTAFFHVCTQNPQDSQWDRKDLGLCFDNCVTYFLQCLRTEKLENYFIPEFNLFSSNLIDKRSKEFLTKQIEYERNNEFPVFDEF
binder,measurement,value
B1,binding signal,~0 % unbound DNA at cGAS/DNA ratio 3
